Test results from patent US20130337528A1.

Molecular target: goat IgG (goat)
Test: binding capacity used to set the particle load for goat serum; method not stated
Details: scale: mg IgG per 5 g wet weight polymer particles

## PhaC-(GB1)3 polymer particles (PHB polymer particles displaying (GB1)3, from plasmid pET-14b PhaC-(GB1)3) (from UniProt P23608 1-589; P06654 228-282; P06654 228-282; P06654 228-282)
  IgG binding capacity: > 220
